Data: paper PMC5148612, “Mechanism of cargo-directed Atg8 conjugation during selective autophagy” (eLife, 2016)

What was measured:
Settings in all cases: both partners purified
Atg12~Atg5-Atg16 complex = molecular target: T1, Atg12~Atg5-Atg16 complex (S. cerevisiae, UniProt P38316 1-186; Q12380 1-294; Q03818 1-150, conjugated to Atg5 (Atg12~Atg5 protein conjugate) | conjugated to Atg12); test: pull-down; GST-fused bait 5 µM and GST-free prey 5 µM with glutathione Sepharose 4B, 1 hr at 4°C; washed with 25 mM HEPES pH 7.5, 150 mM NaCl, 1 mM DTT and 0.1% TritonX100; Western blot (Figures 1A, 1C, 2A, 2C)
T1 construct: Atg12, S. cerevisiae; Atg5, S. cerevisiae; Atg16, S. cerevisiae; conjugate made by co-expression with Atg7 and Atg10 (SMC131); details in Romanov et al., 2012; also called E3-like complex; source: E. coli Rosetta pLysS; Atg12~Atg5 conjugate mixed 1:1 with purified Atg16, purified by size exclusion chromatography; not shown: GST, N-terminal, cleaved; copies: + +
T1 sequence (looked up) 1: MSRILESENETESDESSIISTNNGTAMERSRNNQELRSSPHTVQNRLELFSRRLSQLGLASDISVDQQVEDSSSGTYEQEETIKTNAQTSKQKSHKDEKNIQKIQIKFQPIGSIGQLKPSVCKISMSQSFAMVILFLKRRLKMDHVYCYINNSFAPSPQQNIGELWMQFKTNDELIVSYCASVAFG
T1 sequence (looked up) 2: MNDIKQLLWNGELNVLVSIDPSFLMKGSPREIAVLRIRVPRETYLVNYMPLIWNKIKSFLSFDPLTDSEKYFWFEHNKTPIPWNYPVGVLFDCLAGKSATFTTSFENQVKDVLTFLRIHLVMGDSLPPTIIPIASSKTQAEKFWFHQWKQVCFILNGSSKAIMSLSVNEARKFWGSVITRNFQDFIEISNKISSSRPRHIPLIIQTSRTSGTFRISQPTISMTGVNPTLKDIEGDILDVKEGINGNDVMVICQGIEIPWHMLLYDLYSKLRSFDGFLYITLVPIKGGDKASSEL
T1 sequence (looked up) 3: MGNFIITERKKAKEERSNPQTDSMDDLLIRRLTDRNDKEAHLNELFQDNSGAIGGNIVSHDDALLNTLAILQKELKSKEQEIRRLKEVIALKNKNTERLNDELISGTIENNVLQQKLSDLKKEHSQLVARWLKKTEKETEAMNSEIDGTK

Atg12~Atg5 conjugate [1] = molecular target: T2, Atg12~Atg5 conjugate (S. cerevisiae, UniProt P38316 1-186; Q12380 1-294, conjugated to Atg5 (Atg12~Atg5 protein conjugate) | conjugated to Atg12); test: as above
T2 construct: Atg12, S. cerevisiae; Atg5, S. cerevisiae; the two chains are covalently joined; source: E. coli Rosetta pLysS, co-expression of 6xHis-Atg5, Atg12, Atg7 and Atg10, purified
T2 sequence (looked up) 1: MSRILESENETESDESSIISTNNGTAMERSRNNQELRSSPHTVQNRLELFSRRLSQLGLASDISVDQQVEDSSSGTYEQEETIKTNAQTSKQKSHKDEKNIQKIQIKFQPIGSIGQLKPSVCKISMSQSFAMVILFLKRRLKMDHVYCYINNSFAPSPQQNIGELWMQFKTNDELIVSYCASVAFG
T2 sequence (looked up) 2: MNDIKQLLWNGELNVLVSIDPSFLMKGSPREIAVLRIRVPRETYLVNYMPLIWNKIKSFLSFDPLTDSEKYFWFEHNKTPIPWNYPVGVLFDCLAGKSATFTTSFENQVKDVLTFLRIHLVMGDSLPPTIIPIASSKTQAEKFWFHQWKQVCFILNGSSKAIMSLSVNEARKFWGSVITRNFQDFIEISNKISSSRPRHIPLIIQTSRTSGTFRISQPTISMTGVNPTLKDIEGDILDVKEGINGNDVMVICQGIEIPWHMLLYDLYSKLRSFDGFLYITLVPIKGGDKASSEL

[2] = molecular target: T3, Atg12~Atg5-Atg16-mCherry complex (S. cerevisiae, UniProt P38316 1-186; Q12380 1-294; Q03818 1-150, conjugated to Atg5 (Atg12~Atg5 protein conjugate) | conjugated to Atg12); test: microscopy-based protein-protein interaction assay on beads; glutathione beads coated with GST baits at 20 µM, Atg12~Atg5-Atg16-mCherry 5 µM, 25 mM HEPES pH 7.5, 150 mM NaCl, 1 mM DTT, imaged at equilibrium by spinning disc microscopy (Figures 1B, 2F, 2G)
T3 construct: Atg12, S. cerevisiae; Atg5, S. cerevisiae; Atg16, S. cerevisiae; also called Cx; source: E. coli Rosetta pLysS; Atg12~Atg5 conjugate mixed 1:1 with purified Atg16-mCherry, purified by size exclusion chromatography; not shown: His6, N-terminal, cleaved; mCherry, C-terminal, kept; copies: + +
T3 sequence (looked up) 1: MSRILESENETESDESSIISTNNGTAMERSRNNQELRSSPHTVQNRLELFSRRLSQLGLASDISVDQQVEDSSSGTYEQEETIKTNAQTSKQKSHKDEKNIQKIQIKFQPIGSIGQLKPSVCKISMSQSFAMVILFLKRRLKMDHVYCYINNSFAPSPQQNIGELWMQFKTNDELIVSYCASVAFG
T3 sequence (looked up) 2: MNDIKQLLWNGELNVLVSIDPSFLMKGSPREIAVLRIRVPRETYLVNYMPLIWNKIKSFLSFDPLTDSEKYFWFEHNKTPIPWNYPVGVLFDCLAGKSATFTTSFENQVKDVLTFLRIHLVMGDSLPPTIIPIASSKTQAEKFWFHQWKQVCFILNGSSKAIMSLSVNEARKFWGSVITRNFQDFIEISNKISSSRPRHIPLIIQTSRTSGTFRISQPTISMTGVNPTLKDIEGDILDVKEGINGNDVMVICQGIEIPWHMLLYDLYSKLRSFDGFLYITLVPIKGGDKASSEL
T3 sequence (looked up) 3: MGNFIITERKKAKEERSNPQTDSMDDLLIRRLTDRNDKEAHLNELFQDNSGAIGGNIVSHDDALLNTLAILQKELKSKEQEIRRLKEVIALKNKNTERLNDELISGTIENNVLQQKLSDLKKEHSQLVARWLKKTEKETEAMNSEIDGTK

[3] = molecular target: T4, Atg12~Atg5 (K57E) conjugate (S. cerevisiae, UniProt P38316 1-186; Q12380 1-294, K57E, conjugated to Atg5 | conjugated to Atg12); test: SEC; separately purified proteins mixed in a molar ratio 1:1 for 30 min at 4°C or on ice; the resulting complex purified on Superdex S200 16/60
T4 construct: Atg12, S. cerevisiae; Atg5, S. cerevisiae; source: E. coli Rosetta pLysS, purified
T4 sequence (looked up) 1: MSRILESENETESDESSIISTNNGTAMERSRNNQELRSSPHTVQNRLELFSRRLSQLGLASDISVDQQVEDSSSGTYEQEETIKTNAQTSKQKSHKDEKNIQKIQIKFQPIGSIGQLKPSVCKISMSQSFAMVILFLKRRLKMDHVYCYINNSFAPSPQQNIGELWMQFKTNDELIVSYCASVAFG
T4 sequence (looked up) 2: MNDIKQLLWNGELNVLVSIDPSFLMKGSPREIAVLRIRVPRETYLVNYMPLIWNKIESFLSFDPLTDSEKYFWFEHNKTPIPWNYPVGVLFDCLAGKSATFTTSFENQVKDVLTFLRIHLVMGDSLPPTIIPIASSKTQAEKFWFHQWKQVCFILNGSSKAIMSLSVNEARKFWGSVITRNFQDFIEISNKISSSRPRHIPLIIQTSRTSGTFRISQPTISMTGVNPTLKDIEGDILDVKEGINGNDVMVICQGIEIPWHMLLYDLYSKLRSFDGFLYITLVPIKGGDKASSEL

[4] = molecular target: T5, Atg12~Atg5 (K57E,N84E) conjugate (S. cerevisiae, UniProt P38316 1-186; Q12380 1-294, K57E | N84E, conjugated to Atg5 | conjugated to Atg12); test: as above
T5 construct: Atg12, S. cerevisiae; Atg5, S. cerevisiae; source: E. coli Rosetta pLysS, purified
T5 sequence (looked up) 1: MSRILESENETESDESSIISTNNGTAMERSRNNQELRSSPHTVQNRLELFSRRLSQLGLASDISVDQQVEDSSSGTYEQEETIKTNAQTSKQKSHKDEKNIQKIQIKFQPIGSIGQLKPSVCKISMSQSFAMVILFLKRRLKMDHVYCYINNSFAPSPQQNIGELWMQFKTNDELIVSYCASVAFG
T5 sequence (looked up) 2: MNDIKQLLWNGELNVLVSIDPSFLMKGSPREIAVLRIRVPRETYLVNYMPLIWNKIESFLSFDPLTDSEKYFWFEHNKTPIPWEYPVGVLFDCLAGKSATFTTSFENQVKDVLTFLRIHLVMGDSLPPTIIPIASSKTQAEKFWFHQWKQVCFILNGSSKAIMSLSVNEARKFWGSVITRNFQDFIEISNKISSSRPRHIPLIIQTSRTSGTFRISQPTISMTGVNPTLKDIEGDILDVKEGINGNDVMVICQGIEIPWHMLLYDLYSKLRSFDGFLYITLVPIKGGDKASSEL

[5] = molecular target: T6, Atg12~Atg5 (N84E) conjugate (S. cerevisiae, UniProt P38316 1-186; Q12380 1-294, N84E, conjugated to Atg5 | conjugated to Atg12); test: as above
T6 construct: Atg12, S. cerevisiae; Atg5, S. cerevisiae; source: E. coli Rosetta pLysS, purified
T6 sequence (looked up) 1: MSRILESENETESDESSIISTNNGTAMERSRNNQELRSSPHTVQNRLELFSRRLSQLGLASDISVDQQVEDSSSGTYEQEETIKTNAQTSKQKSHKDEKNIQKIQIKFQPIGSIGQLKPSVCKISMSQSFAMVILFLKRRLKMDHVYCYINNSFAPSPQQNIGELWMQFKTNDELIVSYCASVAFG
T6 sequence (looked up) 2: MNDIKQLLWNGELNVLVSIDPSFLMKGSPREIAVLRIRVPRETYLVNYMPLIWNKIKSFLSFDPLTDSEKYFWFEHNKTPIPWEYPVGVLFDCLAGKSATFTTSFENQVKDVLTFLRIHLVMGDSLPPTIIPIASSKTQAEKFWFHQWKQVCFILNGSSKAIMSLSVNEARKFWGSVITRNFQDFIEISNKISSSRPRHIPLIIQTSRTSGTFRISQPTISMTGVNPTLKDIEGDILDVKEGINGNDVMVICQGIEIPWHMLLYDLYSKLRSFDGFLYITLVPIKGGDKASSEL

Atg12~Atg5 conjugate [6] = molecular target: T2, Atg12~Atg5 conjugate; test: as above

Measured: binding result

B1: GST-Atg19 (natural protein, S. cerevisiae, UniProt P35193 1-415, looked up)
chain: MNNSKTNQQMNTSMGYPLTVYDECNKFQLIVPTLDANIMLWCIGQLSLLNDSNGCKHLFWQPNDKSNVRILLNNYDYGHLFKYLQCQRKCSVYIGEGTLKKYNLTISTSFDNFLDLTPSEEKESLCREDAHEDPVSPKAGSEEEISPNSTSNVVVSRECLDNFMKQLLKLEESLNKLELEQKVTNKEPNHRISGTIDIPEDRSELVNFFTELKTVKQLEDVFQRYHDYERLSQECDSKTEIASDHSKKETKIEVEPPNERSLQITMNQRDNSLYFQLFNNTNSVLAGNCKLKFTDAGDKPTTQIIDMGPHEIGIKEYKEYRYFPYALDLEAGSTIEIENQYGEVIFLGKYGSSPMINLRPPSRLSAESLQASQEPFYSFQIDTLPELDDSSIISTSISLSYDGDDNEKALTWEEL
notes: Atg19, S. cerevisiae cargo receptor; also called full length GST-Atg19; Atg19 full length; source: E. coli Rosetta pLysS, purified; not shown: GST, N-terminal, kept
binds: Atg12~Atg5-Atg16 complex | Atg12~Atg5 conjugate [1] | [2]

B2: Atg16-mCherry (natural protein, S. cerevisiae, UniProt Q03818 1-150, looked up)
chain: MGNFIITERKKAKEERSNPQTDSMDDLLIRRLTDRNDKEAHLNELFQDNSGAIGGNIVSHDDALLNTLAILQKELKSKEQEIRRLKEVIALKNKNTERLNDELISGTIENNVLQQKLSDLKKEHSQLVARWLKKTEKETEAMNSEIDGTK
notes: Atg16, S. cerevisiae; also called 6xHis-Atg16-mCherry; source: E. coli Rosetta pLysS, purified (Ni-NTA, TEV, Superdex 200); not shown: His6, N-terminal, cleaved; mCherry, C-terminal, kept
binds: [3] | [4] | [5] | Atg12~Atg5 conjugate [6]
